Results taken from PMC3170924 (Journal of molecular biology, 2011).

B1: PG peptide, K2WQ10(D-Pro)GQ10AK2 (polyglutamine peptide interrupted by the beta-turn template D-ProGly) (peptide)
peptide: KKWQQQQQQQQQQPGQQQQQQQQQQAKK
HELM: PEPTIDE1{[ac].K.K.W.Q.Q.Q.Q.Q.Q.Q.Q.Q.Q.[dP].G.Q.Q.Q.Q.Q.Q.Q.Q.Q.Q.A.K.K.[am]}$$$$V2.0
SMILES: CC(=O)N[C@@H](CCCCN)C(=O)N[C@@H](CCCCN)C(=O)N[C@@H](Cc1c[nH]c2ccccc12)C(=O)N[C@@H](CCC(N)=O)C(=O)N[C@@H](CCC(N)=O)C(=O)N[C@@H](CCC(N)=O)C(=O)N[C@@H](CCC(N)=O)C(=O)N[C@@H](CCC(N)=O)C(=O)N[C@@H](CCC(N)=O)C(=O)N[C@@H](CCC(N)=O)C(=O)N[C@@H](CCC(N)=O)C(=O)N[C@@H](CCC(N)=O)C(=O)N[C@@H](CCC(N)=O)C(=O)N1CCC[C@@H]1C(=O)NCC(=O)N[C@@H](CCC(N)=O)C(=O)N[C@@H](CCC(N)=O)C(=O)N[C@@H](CCC(N)=O)C(=O)N[C@@H](CCC(N)=O)C(=O)N[C@@H](CCC(N)=O)C(=O)N[C@@H](CCC(N)=O)C(=O)N[C@@H](CCC(N)=O)C(=O)N[C@@H](CCC(N)=O)C(=O)N[C@@H](CCC(N)=O)C(=O)N[C@@H](CCC(N)=O)C(=O)N[C@@H](C)C(=O)N[C@@H](CCCCN)C(=O)N[C@@H](CCCCN)C(N)=O

Target: the molecule itself
Assay: sedimentation assay

Protein | Kn k+^2 (nucleation-elongation fit of sedimentation data) [M^−2s^−2]
Ac-KKWQQQQQQQQQQQQQQQQQQQQAKK-NH2 [Q20 peptide, K2WQ20AK2 (uninterrupted polyglutamine control)] | 0.000235
Ac-KKWQQQQQQQQQQAAQQQQQQQQQQAKK-NH2 [AA peptide, K2WQ10AAQ10AK2 (polyglutamine peptide interrupted by AlaAla)] | 0.000197
B1 | 0.127
